The results in this text go back to patent publication US20210069338A1.

The target of assay [1] is Ac-PYY(PEG3-Cys-PEG2-5-Fluo) / Ac-IK(PEG3-Cys-PEG2-5-Fluo)-Pqa-…-MeArg-Y-NH2. Description: mass spectrometry of the covalent disulfide conjugate, 2.5:1 peptide to antibody, no redox agents.
The target in assay [2] is helicar motif amino acid sequence cysteine variant 2, …(5-Fluo)-OH x TFA. Put plainly: covalent disulfide coupling, 2.5 molar excess of peptide.
The target of assay [3] is Ac-PYY(PEG3-Cys-4Abu-Dig) / Ac-IK(PEG3-Cys-4Abu-Dig)-Pqa-…-MeArg-Y-NH2. Put plainly: mass spectrometry of the covalent disulfide conjugate, 2:1 peptide to antibody, no redox agents.
The target in assay [4] is Ac-PYY(PEG3-Cys-4Abu-NH2) / Ac-IK(PEG3-Cys-4Abu-NH2)-Pqa-…-MeArg-Y-NH2. Description: mass spectrometry, non-haptenylated peptide 2.1:1 to antibody.
The target of assay [5] is PEG3-PYY(PEG3-Cys-4Abu-Dig) / PEG3-IK(PEG3-Cys-4Abu-Dig)-Pqa-…-MeArg-Y-NH2. Description: mass spectrometry of the covalent disulfide conjugate, 2:1 peptide to antibody, 1 mM GSH / 5 mM GSSG.

B1: anti-fluorescein antibody VH52bC (antibody, V domains shown)
VH: GVKLDETGGGLVQPGGAMKLSCVTSGFTFGHYWMNWVRQSPEKGLEWVAQFRNCPYNYETYYSDSVKGRFTISRDDSKSSVYLQMNNLRVEDTGIYYCTGASYGMEYLGQGTSVTVSS
VL: DVVMTQTPLSLPVSLGDQASISCRSSQSLVHSNGNTYLRWYLQKPGQSPKVLIYKVSNRVSGVPDRFSGSGSGTDFTLKINRVEAEDLGVYFCSQSTHVPWTFGGGTKLEIK
As for B1, in assay [1], the % of detected species = antibody coupled to 1 peptide molecule was found to be 5% and the % of detected species = antibody coupled to 2 peptide molecules amounted to 95%.

B2: anti-fluorescein antibody VH28C (antibody, from a related filing, V domains shown, part only)
VH: GVKLDETGGGLVQPGGAMKLSCVTSGFCFGHYWMNWVRQSPEKGLEWVAQFRNKPYNYETYYSDSVKGRFTISRDDSKSSVYLQMNNLRVEDTGIYYCTGASYGMEYLGQGTSVTVSS
VL: DVVMTQTPLSLPVSLGDQASISCRSSQSLVHSNGNTYLRWYLQKPGQSPKVLIYKVSNRVSGVPDRFSGSGSGTDFTLKINRVEAEDLGVYFCSQSTHVPWTFGGGTKLEIK
Consider B2, for which the % of detected species = antibody coupled to 2 peptide molecules in assay [1] amounted to 100%.

B3: anti-helicar motif amino acid sequence antibody (0155), light chain variable domain N55C variant (antibody, V domains shown)
V domain 1: QAVVTQEPSLTVSPGGTVTLTCGSSTGAVTTSNYASWVQQKPGQAFTGLIGGTNNRAPWTPARFSGSLLGGKAALTLSGAQPEDEAEYYCALWYSNHWVFGGGTKLTVL
V domain 2: DAVVTQESALTTSPGETVTLTCRSSTGAVTTSNYASWVQEKPDHLFTGLIGGTNCRAPGVPARFSGSLIGDKAALTITGAQTEDEAIYFCALWYSNHWVFGGGTKLTVL
For B3, in assay [2], the % of antibody covalently conjugated to one helicar motif amino acid sequence worked out at 40%, the % of antibody covalently conjugated to two helicar motif amino acid sequences was 43% and the % of antibody not conjugated was 17%.

B4: humanized anti-digoxigenin antibody VH52bC (antibody, from a related filing, V domains shown)
VH: QVQLVESGGGLVKPGGSLRLSCAASGFTFSDYAMSWIRQAPGKGLEWVSSINICATYIYYADSVKGRFTISRDNAKNSLYLQMNSLRAEDTAVYYCARPGSPYEYDKAYYSMAYWGQGTTVTVSS
VL: DIQMTQSPSSLSASVGDRVTITCRASQDIKNYLNWYQQKPGKAPKLLIYYSSTLLSGVPSRFSGSGSGTDFTLTISSLQPEDFATYYCQQSITLPPTFGCGTKVEIK
As for B4, the figures for the % of detected species = antibody coupled to 1 peptide molecule in assay [3], in assay [4] and in assay [5] were 40%, 51% and 46%, respectively. For the same molecule, the % of detected species = antibody coupled to 2 peptide molecules in assay [3] amounted to 7.4%; in assay [4], 17%; in assay [5], 43%. The % of detected species = uncoupled antibody was determined as 52% in assay [3], 32% in assay [4] and 11% in assay [5].

B5: humanized anti-digoxigenin antibody (antibody, from a related filing, V domains shown)
VH: QVQLVESGGGLVKPGGSLRLSCAASGFTFSDYAMSWIRQAPGKGLEWVSSINIGATYIYYADSVKGRFTISRDNAKNSLYLQMNSLRAEDTAVYYCARPGSPYEYDKAYYSMAYWGQGTTVTVSS
VL: DIQMTQSPSSLSASVGDRVTITCRASQDIKNYLNWYQQKPGKAPKLLIYYSSTLLSGVPSRFSGSGSGTDFTLTISSLQPEDFATYYCQQSITLPPTFGGGTKVEIK
In turn, B5 displayed a % of detected species = uncoupled antibody in assay [4] of 100%.
